This note sets out measurements from US20110091971A1, “Differentiation of Pluripotent Stem Cells” (priority 2008, published 2011).

Residue numbers refer to the chain shown, from its start.

The chains are these.
B1: ACTN34: activin A variant peptide, SEQ ID 35 (protein)
chain: GLECDGKVNYCCKKQLFVSFKDIGWNDWIIAPSGYHANHCTGKCPSHIAGTSGSSLSFHSTVINHYRMRGHSPFSDLGSCCVPTKLRPMSMLYYDDGQNIIKKDIQNMIVEECGCS
B2: ACTN2: activin A variant peptide, SEQ ID 3 (protein)
chain: B1 chain with Y10L, L16N, H39E, V82I
B3: ACTN26: activin A variant peptide, SEQ ID 27 (protein)
chain: B1 chain with Y10L, L16H, H39R, T41D, S75A, D76N, L77M, S79A, V82I
B4: ACTN30: activin A variant peptide, SEQ ID 31 (protein)
chain: B1 chain with L16N, H39K, T41S, K43L, D76K, L77M, S79A
B5: ACTN37: activin A variant peptide, SEQ ID 38 (protein)
chain: B1 chain with Y10L, L16D, H39R, T41S, L77M, S79A, V82I
B6: ACTN33: activin A variant peptide, SEQ ID 34 (protein)
chain: B1 chain with Y10L, L16N, H39E, T41M, L77M, S79A, V82I
B7: ACTN31: activin A variant peptide, SEQ ID 32 (protein)
chain: B1 chain with Y10T, T41S, L77M, V82I
B8: ACTN29: activin A variant peptide, SEQ ID 30 (protein)
chain: B1 chain with Y10L, T41S, L77M, V82I
B9: ACTN58: activin A variant peptide, SEQ ID 59 (protein)
chain: GLECDGKVNICCKKQSFGQTKDIGWNDWIIAPSGYHGGGCTGECPSHIAGTSGSSLSFHSTVINHYRMRGHSPWANLKSCCSPTKLRPMSMLYYDDGQNIIKKDIQNMKVEECGCT
B10: ACTN66: activin A variant peptide, SEQ ID 67 (protein)
chain: B9 chain with S16M, T20A, K109V
B11: ACTN83: activin A variant peptide, SEQ ID 84 (protein)
chain: B9 chain with Q19R, T20A, W74F, N107G
B12: ACTN67: activin A variant peptide, SEQ ID 68 (protein)
chain: B9 chain with T41S
B13: ACTN68: activin A variant peptide, SEQ ID 69 (protein)
chain: B9 chain with Q19K, T20A, W74F, N107G
B14: ACTN73: activin A variant peptide, SEQ ID 74 (protein)
chain: B9 chain with T20A, T41S, W74F, N107G, K109V
B15: ACTN70: activin A variant peptide, SEQ ID 71 (protein)
chain: B9 chain with S16L, T20A, T41S, W74V, N107G, K109V
B16: ACTN80: activin A variant peptide, SEQ ID 81 (protein)
chain: B9 chain with T41S, S82A, T116V

The test system of one test is H1 or H9 human embryonic stem cells. Briefly: Activin A bioassay: differentiation of human embryonic stem cells to definitive endoderm, cell number and SOX17 intensity by high content analysis (96-well, four days).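 On Cell Number average: Raw total cell count per well from high content imaging.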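 On Sox 17 Intensity average: total fluorescence of the cell multiplied by cell area.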 It is filed as cell-based. The following applies: concentrated supernatant (10x; ACTD3 4x), assay dilution 1:20. The method in brief:
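Read-out was cell count and integrated SOX17 immunofluorescence by high-content imaging, with each well divided by the mean of the 100 ng/ml activin A control. Over the four-day culture, test samples were given in DMEM:F12 with 0.5% FCS plus 20 ng/ml Wnt3a for the first two days and in 2% FCS alone for the last two. Cells were H1 or H9 hESC clusters grown on Matrigel.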
As to B1, the “Cell Number average” value was 11794 and the “Sox 17 Intensity average” value was found to be 8.08E+07.

The test is the same for the next values; noted with them: concentrated supernatant (10x; ACTD3 4x), assay dilution 1:20; control = R&D Sys Activin A 100 ng/ml.
B1: the “Sox 17 Intensity % of control” value is reported as 185%.

The test is the same for the next values; noted with them: supernatant concentration 1x, assay dilution 1:20.
Take B2: the “Cell Number average” value came to 4057 and the “Sox 17 Intensity average” value was determined as 1.756E+07.

Staying with this test, now noted: supernatant concentration 1x, assay dilution 1:20; control = R&D Sys Activin A 100 ng/ml on same plate.
For the molecule B2, the “Sox 17 Intensity % of control” value is 9.5%.

Still in this test, the particulars now being: supernatant concentration 10x, assay dilution 1:20.
Consider B2, for which the “Cell Number average” value came to 2965 and the “Sox 17 Intensity average” value was determined as 2.299E+07.

The test is the same for the next values; noted with them: supernatant concentration 10x, assay dilution 1:20; assay plates #007, #009, #010.
B3: the “Cell Number average” value is 4250 and the “Sox 17 Intensity average” value worked out at 5.92E+05.
Regarding B1, the “Cell Number average” value is reported as 10063 and the “Sox 17 Intensity average” value is listed as 5.69E+07.
As for B4, the “Cell Number average” value is given as 7357 and the “Sox 17 Intensity average” value is listed as 6.73E+05.
Turning to B5, the “Cell Number average” value is listed as 3957 and the “Sox 17 Intensity average” value worked out at 1.35E+06.
The matching figures for B6: 3588 and 2.15E+06.
On to B7, for which the “Cell Number average” value was determined as 10450 and the “Sox 17 Intensity average” value amounted to 5.44E+07.
The matching figures for B8: 8943 and 5.13E+07.
The matching figures for B9: 11078 and 6.70E+05.
The matching figures for B10: 13360 and 4.84E+05.
B11: the “Cell Number average” value is 12084 and the “Sox 17 Intensity average” value was 5.39E+05.
With B12, the “Cell Number average” value is 12653 and the “Sox 17 Intensity average” value worked out at 4.44E+05.
In the same order, the values of B13 are 13395 and 1.43E+06.
B14: the “Cell Number average” value was determined as 10569 and the “Sox 17 Intensity average” value is 8.27E+05.
With B15, the “Cell Number average” value came to 12551 and the “Sox 17 Intensity average” value is given as 9.67E+05.
As for B16, the “Cell Number average” value came to 9898 and the “Sox 17 Intensity average” value came out at 4.08E+05.

The test is the same for the next values; noted with them: supernatant concentration 10x, assay dilution 1:20; control = R&D Sys Activin A 100 ng/ml on same plate.
Regarding B3, the “Sox 17 Intensity % of control” value stood at 2.7%.
Take B1: the “Sox 17 Intensity % of control” value was 257.4%.
For the molecule B4, the “Sox 17 Intensity % of control” value came out at 3.0%.
Consider B5, for which the “Sox 17 Intensity % of control” value was 6.1%.
For B6, the “Sox 17 Intensity % of control” value was determined as 9.7%.
Turning to B2, the “Sox 17 Intensity % of control” value was 12.5%.
Consider B7, for which the “Sox 17 Intensity % of control” value is 246.3%.
Same read-out and setting: the value for B8 was 232.0%; that for B9 was 3.0%; that for B10 was 2.2%.
In the case of B11, the “Sox 17 Intensity % of control” value is on record as 2.4%.
As to B12, the “Sox 17 Intensity % of control” value is recorded as 2.0%.
For B13, the “Sox 17 Intensity % of control” value was determined as 6.5%.
In the case of B14, the “Sox 17 Intensity % of control” value is listed as 3.7%.
With B15, the “Sox 17 Intensity % of control” value is given as 4.4%.
In the case of B16, the “Sox 17 Intensity % of control” value was 1.8%.

The test is the same for the next values; noted with them: supernatant concentration 10x, assay dilution 1:40.
Turning to B2, the “Cell Number average” value was 2232 and the “Sox 17 Intensity average” value was 1.280E+07.

The same test, now with this note: supernatant concentration 10x, assay dilution 1:40; control = R&D Sys Activin A 100 ng/ml on same plate.
With B2, the “Sox 17 Intensity % of control” value amounted to 7.0%.

Still in this test, the particulars now being: supernatant concentration 50x, assay dilution 1:20; assay plates #008, #009.
For B3, the “Cell Number average” value is 5043 and the “Sox 17 Intensity average” value amounted to 4.78E+06.
In the case of B1, the “Cell Number average” value was 12163 and the “Sox 17 Intensity average” value turned out to be 1.47E+08.
Consider B4, for which the “Cell Number average” value turned out to be 5013 and the “Sox 17 Intensity average” value was 2.87E+06.
In the same order, the values of B5 are 2902 and 5.89E+06.
For B6, the “Cell Number average” value was 3383 and the “Sox 17 Intensity average” value was found to be 6.50E+06.
The matching figures for B7: 11148 and 1.49E+08.
Consider B8, for which the “Cell Number average” value was 8835 and the “Sox 17 Intensity average” value was 1.03E+08.
Take B9: the “Cell Number average” value worked out at 13214 and the “Sox 17 Intensity average” value stood at 3.78E+06.
The matching figures for B10: 16460 and 3.39E+06.
B11: the “Cell Number average” value was found to be 15829 and the “Sox 17 Intensity average” value worked out at 9.01E+06.
B12: the “Cell Number average” value was 14821 and the “Sox 17 Intensity average” value is 3.50E+06.
With B13, the “Cell Number average” value was found to be 15926 and the “Sox 17 Intensity average” value is on record as 1.83E+06.
In the same order, the values of B14 are 16351 and 3.13E+06.
Consider B15, for which the “Cell Number average” value came to 16071 and the “Sox 17 Intensity average” value is given as 3.20E+06.
As to B16, the “Cell Number average” value is recorded as 14686 and the “Sox 17 Intensity average” value stood at 3.52E+06.

The same test, now with this note: supernatant concentration 50x, assay dilution 1:20; control = R&D Sys Activin A 100 ng/ml on same plate.
For B3, the “Sox 17 Intensity % of control” value amounted to 8.6%.
B1: the “Sox 17 Intensity % of control” value worked out at 266.9%.
As to B4, the “Sox 17 Intensity % of control” value is given as 5.2%.
Take B5: the “Sox 17 Intensity % of control” value amounted to 10.6%.
On the same count and under the same terms, the value for B6 was 11.8%; that for B7 was 269.7%.
For B8, the “Sox 17 Intensity % of control” value is reported as 186.2%.
B9: the “Sox 17 Intensity % of control” value came out at 6.8%.
Take B10: the “Sox 17 Intensity % of control” value amounted to 6.1%.
Consider B11, for which the “Sox 17 Intensity % of control” value is reported as 16.3%.
Consider B12, for which the “Sox 17 Intensity % of control” value came to 6.3%.
In the case of B13, the “Sox 17 Intensity % of control” value is listed as 3.3%.
The same measure, in the same setting: the value for B14 was 5.7%; that for B15 was 5.8%; that for B16 was 6.4%.
